From patent US20200397816A1, “METHODS TO TREAT INFLAMMATORY AND SMOOTH MUSCLE CELL PROLIFERATION DISORDERS” (THE TRUSTEES OF INDIANA UNIVERSITY, priority 2019, published 2020)
Entries after “also recorded” stand apart in the source; their conditions may differ.

Experiments:
pSphK1 (Ser225) = pSphK1 (Ser225) immunoblotting and immunofluorescence in hPASMC; type: cell-based, human; settings: SMCs
Procedure: (§1) RAW 264.7 (ATCC) mouse macrophages and Human Embryonic Kidney (HEK) 293T cells were cultured in DMEM media with 10% fetal bovine serum […] and glutamine HEPES buffer and beta-mercaptoethanol were added to the growth medium used for RAW 264.7 macrophages. […]
(§2) After appropriate treatments, protein lysates were prepared by using RIPA buffer supplemented with phosphatase and protease inhibitors (Thermo Fischer Scientific). […] Western blots were performed according to standard methods and quantified using densitometry using Image Studio Lite software from LI-COR Biosciences. […]
as §2, with “Fisher” for “Fischer”

S1P = assay: ELISA for S1P quantification in hPASMC; type: cell-based, human; settings: SMCs; peaks at 1 hour and 6 hour; normalized against protein
Procedure: Equal number of hPASMC cells (1,000,000) were plated and serum starved for overnight. Cells were stimulated for in a series of time points and collected the cells. Cells were pelleted out and washed with PBS. After the lysis protein concentration was measured. S1P levels were measured using S1P ELISA kit (MyBioSource, MBS069092) following manufacturer's instructions. S1P levels were normalized against protein levels.

pSTAT3 (Y705) = assay: EMAP II induced pSTAT3 western blot in RAW 264.7 macrophages; type: cell-based, mouse; settings: macrophages; EMAP II 24 hours
Procedure: (§3) After appropriate treatments, protein lysates were prepared by using RIPA buffer supplemented with phosphatase and protease inhibitors (Thermo Fischer Scientific). Alpha-tubulin was used as a loading control. For nuclear and cytoplasmic fractionation, NE-PER kit from Thermo Fischer Scientific was used. Western blots were performed according to standard methods and quantified using densitometry using Image Studio Lite software from LI-COR Biosciences.
as §3, with “(Thermo Fisher” for “(Thermo Fischer”

TNF = TNF in SMCs (data not shown); type: cell-based, human
Il6 = Il6 transcripts qRT-PCR in hPASMC; type: cell-based, human; settings: SMCs, EMAP II time course
Procedure: as §1
Total RNA was extracted with TriZol using standard RNA extraction protocol and reverse transcribed with SuperScript III Reverse Transcriptase (Thermo Fischer Scientific). SphK1, Tnf, Il6, EGR1, Gapdh, Hprt1 transcripts were quantified using PrimePCR SYBR Green assays from BioRad. […]
Total RNA was extracted with TriZol using standard RNA extraction protocol and reverse transcribed with SuperScript III Reverse Transcriptase (Thermo Fisher Scientific). SPHK1, Tnf, Il6, EGR1, Gapdh, Hprt1 transcripts were quantified using PrimePCR SYBR Green assays from BioRad.

SphK1 = SphK1 protein western blot in RAW 264.7 macrophages; type: cell-based, mouse
Procedure: as §1, §2
After appropriate treatments, protein lysates were prepared by using RIPA buffer supplemented with phosphatase and protease inhibitors (Thermo Fisher Scientific). […] Western blots were performed according to standard methods and quantified using densitometry using Image Studio Lite software from LI-COR Biosciences.

B1: EMAP II: 6x-His tagged recombinant EMAP II, cleaved C-terminal peptide of AIMP1 (SEQ ID NO: 2), pro-inflammatory cytokine (protein)
chain: IAGSADSKPIDVSRLDLRIGCIITARKHPDADSLYVEEVDVGEIAPRTVVSGLVNHVPLEQMQNRMVILLCNLKPAKMRGVLSQAMVMCASSPEKIEILAPPNGSVPGDRITFDAFPGEPDKELNPKKKIWEQIQPDLHTNDECVATYKGVPFEVKGKGVCRAQTMSNSGIK
With B1 the “pSphK1 localization to the plasma membrane” value (pSphK1 (Ser225); immunostaining pSphK1 and actin, 15 minutes, 1 hour, 6 hours EMAP II) was “stimulated translocation; also recorded: trafficked to the plasma membrane; also recorded: increased pSPHK1 signal”, the “SphK1 phosphorylation (pSphK1/Tubulin)” value (pSphK1 (Ser225); peaks at 1 and 6 hours of EMAP II) was “bi-modal SphK1 phosphorylation; also recorded: bimodal SPHK1 phosphorylation” and the “intracellular S1P levels (ELISA)” value (S1P) was “significant bimodal pattern”. For the same molecule, the “STAT3 activation (pSTAT3)” value (pSTAT3 (Y705)) was “induced STAT3 activation”, the TNF induction (TNF) was “absent” and the Il6 transcription (Il6) was “increased transcription”. The “protein expression of SphK1 compared to control” value (SphK1; EMAP II treated macrophages) was “about 1.7 times” and the SphK1 protein expression (SphK1; macrophages, EMAP II 6 hours) was “significant overexpression; also recorded: significantly increased”.
